Assay results as given in publication PMC10746679.

Key:
[1] = target: 70-kDa N-terminal FN fragment (FN70); assay: solid-phase binding assay; conditions: FN70 25 μg/ml coated on plate, read off a plot
[2] = target: Full-length fibronectin (UniProt P02751); assay: solid-phase binding assay; conditions: FN-FL 25 μg/ml coated on plate, read off a plot
[3] = [HSP90α] 2.5 µM (read from x axis), parent: est. 1.4
[4] = [HSP90α] about 0.31 µM (read from x axis), parent: est. 1.1
[5] = [HSP90α] about 0.63 µM (read from x axis), parent: est. 1.3
[6] = [HSP90α] about 1.25 µM (read from x axis), parent: est. 1.4

Chain of Full-length fibronectin (P02751 32-2477): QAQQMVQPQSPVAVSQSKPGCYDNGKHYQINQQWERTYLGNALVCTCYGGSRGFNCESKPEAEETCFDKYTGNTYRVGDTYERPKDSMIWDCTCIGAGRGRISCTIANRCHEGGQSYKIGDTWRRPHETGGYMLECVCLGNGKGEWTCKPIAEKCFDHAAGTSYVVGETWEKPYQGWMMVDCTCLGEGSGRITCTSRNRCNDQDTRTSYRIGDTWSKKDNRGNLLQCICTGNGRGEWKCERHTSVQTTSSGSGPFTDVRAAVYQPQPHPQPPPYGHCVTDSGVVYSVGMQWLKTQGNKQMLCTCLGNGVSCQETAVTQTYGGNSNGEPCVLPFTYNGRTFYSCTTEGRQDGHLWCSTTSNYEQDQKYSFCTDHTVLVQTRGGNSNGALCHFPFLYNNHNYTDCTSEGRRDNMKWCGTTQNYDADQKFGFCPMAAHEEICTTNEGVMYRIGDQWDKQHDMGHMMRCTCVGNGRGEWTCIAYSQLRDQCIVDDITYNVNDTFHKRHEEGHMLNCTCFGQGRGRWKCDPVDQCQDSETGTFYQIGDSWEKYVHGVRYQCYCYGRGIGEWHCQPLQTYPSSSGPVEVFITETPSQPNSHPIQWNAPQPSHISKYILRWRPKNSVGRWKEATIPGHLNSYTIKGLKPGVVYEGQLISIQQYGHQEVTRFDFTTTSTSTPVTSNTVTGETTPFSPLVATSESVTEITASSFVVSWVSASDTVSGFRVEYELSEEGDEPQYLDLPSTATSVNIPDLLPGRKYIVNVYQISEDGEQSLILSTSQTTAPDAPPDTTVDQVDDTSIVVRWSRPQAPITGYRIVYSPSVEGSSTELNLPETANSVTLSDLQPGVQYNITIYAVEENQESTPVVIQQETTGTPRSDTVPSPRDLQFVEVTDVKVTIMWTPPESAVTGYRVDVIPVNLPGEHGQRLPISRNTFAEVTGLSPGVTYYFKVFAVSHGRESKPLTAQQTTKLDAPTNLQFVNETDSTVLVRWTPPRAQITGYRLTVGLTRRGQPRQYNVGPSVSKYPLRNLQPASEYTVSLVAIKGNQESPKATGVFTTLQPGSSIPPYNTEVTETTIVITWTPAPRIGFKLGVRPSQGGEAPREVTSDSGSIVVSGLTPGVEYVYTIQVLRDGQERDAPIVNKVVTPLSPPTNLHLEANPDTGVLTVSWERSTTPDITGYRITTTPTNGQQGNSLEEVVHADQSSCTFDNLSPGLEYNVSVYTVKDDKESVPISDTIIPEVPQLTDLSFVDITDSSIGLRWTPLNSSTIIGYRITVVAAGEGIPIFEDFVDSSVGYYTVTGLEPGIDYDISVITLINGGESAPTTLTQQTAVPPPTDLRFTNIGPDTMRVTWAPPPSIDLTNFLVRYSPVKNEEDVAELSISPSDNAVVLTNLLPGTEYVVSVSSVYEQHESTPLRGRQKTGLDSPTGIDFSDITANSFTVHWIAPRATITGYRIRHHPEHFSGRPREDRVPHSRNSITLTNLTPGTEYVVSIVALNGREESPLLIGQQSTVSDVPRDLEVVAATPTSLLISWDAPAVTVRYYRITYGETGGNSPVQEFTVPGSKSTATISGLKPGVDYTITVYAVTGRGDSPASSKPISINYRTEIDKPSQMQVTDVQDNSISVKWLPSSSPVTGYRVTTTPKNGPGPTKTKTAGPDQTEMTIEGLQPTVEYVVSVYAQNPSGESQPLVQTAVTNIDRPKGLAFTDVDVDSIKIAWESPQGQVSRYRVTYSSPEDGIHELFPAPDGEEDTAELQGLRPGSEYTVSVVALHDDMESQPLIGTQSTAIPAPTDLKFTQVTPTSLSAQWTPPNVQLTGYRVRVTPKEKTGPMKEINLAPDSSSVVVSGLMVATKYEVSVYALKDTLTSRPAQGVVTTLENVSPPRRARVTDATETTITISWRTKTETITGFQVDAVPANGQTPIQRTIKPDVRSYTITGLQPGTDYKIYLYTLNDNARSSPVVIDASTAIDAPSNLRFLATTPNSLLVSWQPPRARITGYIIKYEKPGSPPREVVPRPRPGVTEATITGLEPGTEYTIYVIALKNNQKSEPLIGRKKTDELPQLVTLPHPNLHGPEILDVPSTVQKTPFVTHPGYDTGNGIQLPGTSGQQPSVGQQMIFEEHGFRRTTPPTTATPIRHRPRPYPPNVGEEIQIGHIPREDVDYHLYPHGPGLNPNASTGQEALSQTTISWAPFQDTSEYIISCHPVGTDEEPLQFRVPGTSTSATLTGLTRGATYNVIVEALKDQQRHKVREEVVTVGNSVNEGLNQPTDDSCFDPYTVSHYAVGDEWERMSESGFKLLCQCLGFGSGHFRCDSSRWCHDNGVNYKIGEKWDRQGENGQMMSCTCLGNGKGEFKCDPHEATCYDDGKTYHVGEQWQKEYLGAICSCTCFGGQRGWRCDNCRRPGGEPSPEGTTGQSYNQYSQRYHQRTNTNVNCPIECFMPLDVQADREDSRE

response (Absorbance (450 nm)) [1, 3] | response (Absorbance (450 nm)) [1, 4] | response (Absorbance (450 nm)) [1, 5] | response (Absorbance (450 nm)) [1, 6] | response (Absorbance (450 nm)) [2, 3] | response (Absorbance (450 nm)) ([2]; [HSP90α] about 0.31 µM (read from x axis), parent: est. 1.0) | response (Absorbance (450 nm)) ([2]; [HSP90α] about 0.63 µM (read from x axis), parent: est. 1.25) | response (Absorbance (450 nm)) ([2]; [HSP90α] about 1.25 µM (read from x axis), parent: est. 1.2) | Substance
1.1 | 0.82 | 0.93 | 1.1 |  |  |  |  | Recombinant full-length wild type His-HSP90α (from UniProt P07900) Y528A
 |  |  |  | 0.53 | 0.36 | 0.45 | 0.44 | Recombinant full-length wild type His-HSP90α, P07900 F352A; Y528A
1.1 | 0.72 | 0.83 | 0.99 |  |  |  |  | Recombinant full-length wild type His-HSP90α (from UniProt P07900) F352A; Y528A
